According to article PMC5175136, “Structural basis of the substrate preference towards CMP for a thymidylate synthase MilA involved in mildiomycin biosynthesis” (Scientific Reports, 2016):

Key:
MilA [1] = target: T1, MilA (Streptomyces rimofaciens, UniProt B4Y380); experiment: X-ray crystal structure, […] Å; assay type: binding; settings: crystals grown with hmCMP, pH 6.5, 14 °C; active site
T1 construct: full-length, C-terminal 6xHis tag (LEHHHHHH) kept, pET28a, expressed in E. coli BL21(DE3); homodimer, active site from both subunits
T1 sequence (B4Y380 1-334): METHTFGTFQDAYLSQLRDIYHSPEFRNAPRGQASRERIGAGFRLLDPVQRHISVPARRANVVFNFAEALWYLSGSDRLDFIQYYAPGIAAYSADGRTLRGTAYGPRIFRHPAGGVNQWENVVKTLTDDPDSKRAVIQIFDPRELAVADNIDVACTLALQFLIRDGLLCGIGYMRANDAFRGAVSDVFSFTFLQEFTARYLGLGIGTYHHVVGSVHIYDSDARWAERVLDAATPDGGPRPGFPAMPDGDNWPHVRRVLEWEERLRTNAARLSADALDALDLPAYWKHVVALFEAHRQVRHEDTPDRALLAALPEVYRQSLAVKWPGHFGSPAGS

MilA [2] = target: T2, MilA (Streptomyces rimofaciens, UniProt B4Y380, K133R/A176S); experiment: HPLC/LC-MS of CMP and dCMP competition reaction; assay type: biochemical; settings: 1 mM CMP and dCMP together, 2 mM tetrahydrofolate, 15 mM paraformaldehyde, pH 7.5, 37 °C
T2 construct: full-length, C-terminal 6xHis tag (LEHHHHHH) kept, pET28a, expressed in E. coli BL21(DE3); homodimer, active site from both subunits
T2 sequence (B4Y380 entry or part of it K133R/A176S): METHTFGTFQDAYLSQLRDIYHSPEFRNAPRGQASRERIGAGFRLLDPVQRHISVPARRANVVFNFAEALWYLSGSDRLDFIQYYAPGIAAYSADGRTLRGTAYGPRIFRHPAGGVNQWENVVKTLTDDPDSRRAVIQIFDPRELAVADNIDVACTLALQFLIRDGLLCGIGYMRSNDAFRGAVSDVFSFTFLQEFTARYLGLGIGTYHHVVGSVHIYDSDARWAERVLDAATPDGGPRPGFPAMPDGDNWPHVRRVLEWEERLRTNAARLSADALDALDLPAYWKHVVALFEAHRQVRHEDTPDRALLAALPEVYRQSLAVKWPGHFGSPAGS

MilA [3] = target: T3, MilA (Streptomyces rimofaciens, UniProt B4Y380, A176S); experiment: HPLC/LC-MS of CMP and dCMP competition reaction; assay type: biochemical; settings: 1 mM CMP and dCMP together, 2 mM tetrahydrofolate, 15 mM paraformaldehyde, pH 7.5, 37 °C
T3 construct: full-length, C-terminal 6xHis tag (LEHHHHHH) kept, pET28a, expressed in E. coli BL21(DE3); homodimer, active site from both subunits
T3 sequence (B4Y380 entry or part of it A176S): as the sequence (B4Y380 entry or part of it K133R/A176S) above, with R133K counted along it

[4] = substrate: Nc1ccn([C@@H]2O[C@H](COP(=O)(O)O)[C@@H](O)[C@H]2O)c(=O)n1; experiment: HPLC of hmCMP formation, Michaelis-Menten fit; assay type: biochemical, Streptomyces rimofaciens; settings: CH2THF co-substrate saturating (from 2 mM tetrahydrofolate), 50 mM Tris-HCl pH 7.5, 37 °C
Source text: HPLC of hmCMP formation, Michaelis-Menten fit on MilA

[5] = substrate: Nc1ccn([C@H]2C[C@H](O)[C@@H](COP(=O)(O)O)O2)c(=O)n1; experiment: HPLC of hmdCMP formation, Michaelis-Menten fit; assay type: biochemical, Streptomyces rimofaciens; settings: CH2THF co-substrate saturating (from 2 mM tetrahydrofolate), 50 mM Tris-HCl pH 7.5, 37 °C
Source text: HPLC of […] formation, Michaelis-Menten fit on MilA

[6] = target: the molecule itself; experiment: crystal structure; hanging-drop vapor diffusion at 14 °C; apo MilA (PEG 3350, lithium sulfate, Tris-HCl pH 8.5) and complexes with CMP, dCMP or hmCMP (sodium cacodylate pH 6.5, sodium acetate); space group P3(2)21, two molecules in the asymmetric unit related by a non-crystallographic twofold rotation
[7] = crystal structure of complex at 1.65 Å
[8] = crystal structure of complex at 2.10 Å

Q: With Nc1nc(=O)n([C@@H]2O[C@H](COP(=O)(O)O)[C@@H](O)[C@H]2O)cc1CO [hmCMP] as the molecule, how does the “X-ray crystal structure, 1.80 Å” value (MilA [1]) read?
A: MilA‒hmCMP complexes have been deposited in the Protein Data Bank

Q: Nc1ccn([C@H]2C[C@H](O)[C@@H](COP(=O)(O)O)O2)c(=O)n1 [dCMP] was tested. Which “HPLC/LC-MS of CMP and dCMP competition reaction” value (“HPLC/LC-MS” for short) (MilA [2]) did it give?
A: double mutant MilA A176S/K133R, but its efficiency to dCMP is slightly affected

Q: And the “HPLC/LC-MS” value (MilA [3])?
A: significantly enhanced its catalytic efficiency toward dCMP

Q: With Nc1ccn([C@@H]2O[C@H](COP(=O)(O)O)[C@@H](O)[C@H]2O)c(=O)n1 [CMP] as the molecule, how does the “HPLC/LC-MS” value (MilA [3]) read?
A: MilA-A176S could still catalyze the hydroxymethylation reaction of CMP

B1: MilA, CMP hydroxymethylase from Streptomyces rimofaciens ZJU5119 (wild type, C-terminally His-tagged) (enzyme, UniProt B4Y380 1-334, looked up)
chain: T1 sequence (B4Y380 1-334)
notes: MilA, CMP hydroxymethylase of the mildiomycin biosynthetic gene cluster, Streptomyces rimofaciens ZJU5119; full-length, cloned into pET28a; They are disordered in the crystal; also called WT MilA; MilA-WT; source: E. coli BL21(DE3), purified (Ni-NTA, Superdex 200 gel filtration); not shown: His6, C-terminal, kept
Q: For B1, which Km [4] is on record?
A: 0.0719 (0.0076) mM

Q: What about the kcat [4, 7] of the same molecule?
A: 0.047 s⁻¹

Q: What about the kcat/Km [4, 7] of the same molecule?
A: 653 M⁻¹ s⁻¹

Q: And the Km [5]?
A: 0.245 (0.0589) mM

Q: And the kcat [5, 8]?
A: 0.032 s⁻¹

Q: And the kcat/Km [5, 8]?
A: 131 M⁻¹ s⁻¹

Q: What about the “stoichiometry N” value [6] of the same molecule?
A: 2
